In patent publication US5780265:

Assays:
Human Factor XIa (human) [1] = biological target: Human Factor XIa (human) (UniProt P03951)
[2] = biological target: Human plasma kallikrein (human) (UniProt P03952)
[3] = biological target: tissue factor-Factor VIIa (human) (UniProt P13726)
Human Factor XIa (human) [4] = biological target: Human Factor XIa (human) (UniProt P03951); remark: listed apart in the source
Human Factor XIa (human) [5] = biological target: Human Factor XIa (human) (UniProt P03951); assay: enzyme inhibition of FXIa, chromogenic substrate, fit to the tight-binding equation (apparent Ki*)

fraction of remaining proteolytic activity at 100 nM inhibitor (fraction of uninhibited rate) (Human Factor XIa (human) [1]): 0.03 | fraction of remaining proteolytic activity at 100 nM inhibitor (fraction of uninhibited rate) [2]: 0.81 | fraction of remaining proteolytic activity at 100 nM inhibitor (fraction of uninhibited rate) [3]: 0.6 | fold prolongation of the clotting time of normal human plasma, APTT assay (Human Factor XIa (human) [4]): 2.8 fold | Ki (Human Factor XIa (human) [5]): 2.7 nM
Substance: APPI, Kunitz protease inhibitor domain of the Alzheimer's amyloid β-protein precursor
